Results published in article PMC10907630, “Phosphorylation regulates tau’s phase separation behavior and interactions with chromatin”.

Experiments:
[1] = molecular target: T1, tau 1N4R (UniProt P10636-7 1-412); test: EMSA; 10 mM NaCl; Hill fit; EMSA: 20 nM DNA or nucleosome, 20 mM HEPES pH 7.2, 10 mM NaCl (or 150), 0.5 mM TCEP, 0.1% Tween-20, 5% sucrose, room temperature 20 min; FA: 10 nM DNA, same buffer with 10 mM NaCl, 0.01% NP-40 substitute, room temperature 10 min; conditions: protein: recombinant; tags: none stated; label: 5' 6-FAM on strand 1; blunt
T1 sequence (P10636 other isoform, or with tags, fused parts or gaps): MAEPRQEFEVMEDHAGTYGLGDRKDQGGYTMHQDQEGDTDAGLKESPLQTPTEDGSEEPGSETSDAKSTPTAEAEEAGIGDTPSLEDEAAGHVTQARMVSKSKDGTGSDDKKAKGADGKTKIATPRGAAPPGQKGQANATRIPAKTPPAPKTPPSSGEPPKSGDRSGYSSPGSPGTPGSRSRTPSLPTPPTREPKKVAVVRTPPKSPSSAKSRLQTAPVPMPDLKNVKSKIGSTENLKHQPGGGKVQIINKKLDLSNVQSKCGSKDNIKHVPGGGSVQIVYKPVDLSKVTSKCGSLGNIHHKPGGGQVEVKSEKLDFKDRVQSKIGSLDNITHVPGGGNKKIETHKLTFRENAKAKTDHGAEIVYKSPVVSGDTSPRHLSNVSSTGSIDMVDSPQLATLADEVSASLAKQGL

[2] = molecular target: T1, tau 1N4R; test: fluorescence anisotropy; 10 mM NaCl; Hill fit; EMSA: 20 nM DNA or nucleosome, 20 mM HEPES pH 7.2, 10 mM NaCl (or 150), 0.5 mM TCEP, 0.1% Tween-20, 5% sucrose, room temperature 20 min; FA: 10 nM DNA, same buffer with 10 mM NaCl, 0.01% NP-40 substitute, room temperature 10 min; conditions: protein: recombinant; tags: none stated; label: 5' 6-FAM on strand 1; blunt

B1: 22 bp DNA (dsDNA)
DNA 1: ATTTAGAAATGTCCACTGTAGG
DNA 2: CCTACAGTGGACATTTCTAAAT
B1 showed a Kd [1] of 112 ± 3.7 nM and a Kd [2] of 6.3 ± 0.5 nM.
